# Experimental data published in the supplement of paper PMC10567573.
# B1: ZNF263 (parent)
# chain: FAHSSNLLRHQRIHTGERPYKCPE
# B2: SPATS1 (parent)
# chain: YPEQSKGFHKAGSMLPPVNFSIVP
# Variants of: B1
# Assay: protein stability index of a GFP-peptide fusion (GPS, HEK-293T) (PSI 1-6); higher = more stable
# Settings: c terminus: a fixed tail appended
# 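Further: lentivirally expressed fusions sorted by FACS into six bins by GFP to DsRed ratio, PSI derived from sequencing read proportions per bin multiplied by bin number.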
row,Variant,protein stability index
1,N6W,3.04
2,N6A,1.77
3,N6H,2
4,N6S,2.27
5,N6F,1.73
6,N6L,1.58
7,N6E,2.62
8,N6I,1.56
9,N6G,2.21
10,N6R,1.99
11,N6D,2.41
12,N6T,2.3
13,N6Q,2.49
14,N6P,1.98
15,N6M,2.15
16,N6C,1.4
17,N6K,2.17
18,N6Y,1.63
19,N6V,1.91
20,L7Y,1.6
21,L7E,3.14
22,L7R,2.58
23,L7Q,3.21
24,L7P,2.02
25,L7T,2.45

row,Variant,protein stability index
1,L7C,2.08
2,L7S,2.52
3,L7K,2.54
4,L7N,2.93
5,L7V,2.68
6,L7W,2.48
7,L7I,2.2
8,L7H,2.94
9,L7G,2.43
10,L7M,2.39
11,L7D,2.75
12,L7A,2.83
13,L7F,1.84
14,H3G,2.12
15,H3E,1.98
16,H3M,2.41
17,H3N,2.48
18,H3S,2.22
19,H3L,2.61
20,H3P,2.5
21,H3W,1.25
22,H3T,2.06
23,H3C,2.07
24,H3Q,2.03
25,H3D,1.94

row,Variant,protein stability index
1,H3F,1.89
2,H3A,2.15
3,H3K,1.86
4,H3V,1.86
5,H3Y,1.96
6,H3I,2.34
7,H3R,2.04
8,R9S,2.63
9,R9H,2.85
10,R9K,2.93
11,R9G,2.45
12,R9Q,2.87
13,R9P,3.19
14,R9Y,2.36
15,R9C,2.68
16,R9E,3.23
17,R9F,2.06
18,R9M,3.05
19,R9I,2.21
20,R9T,2.9
21,R9L,2.88
22,R9N,2.85
23,R9V,2.58
24,R9D,2.62
25,R9A,2.39

row,Variant,protein stability index
1,L8G,2.35
2,L8F,1.8
3,L8M,2.68
4,L8P,2.78
5,L8Q,2.97
6,L8H,2.01
7,L8E,3.3
8,L8N,2.8
9,L8W,2.64
10,L8T,3.04
11,L8A,2.37
12,L8S,3.14
13,L8D,3.05
14,L8I,2.71
15,L8C,2.13
16,L8Y,2.78
17,L8K,2.46
18,L8V,2.55
19,L8R,2.53
20,S5G,1.74
21,S5Y,2.13
22,S5K,1.91
23,S5H,1.81
24,S5F,1.94
25,S5C,2.02

row,Variant,protein stability index
1,S5L,1.96
2,S5D,2.87
3,S5Q,2.15
4,S5E,2.75
5,S5N,2.3
6,S5R,2.44
7,S5M,2.28
8,S5V,2.12
9,S5T,2.7
10,S5A,2.04
11,S5I,2.31
12,S5W,2.24
13,S5P,2.25
14,S4Y,2.45
15,S4H,1.91
16,S4F,2.55
17,S4V,2.24
18,S4L,2.48
19,S4K,2.28
20,S4R,2.07
21,S4I,2.09
22,S4W,2.62
23,S4N,2.7
24,S4E,3.05
25,S4M,1.86

row,Variant,protein stability index
1,S4T,2.13
2,S4Q,2.06
3,S4A,2.15
4,S4G,2.45
5,S4D,2.94
6,S4C,2.11
7,S4P,2.62
8,Q11A,1.61
9,Q11D,2.98
10,Q11E,2.56
11,Q11C,3.7
12,F1H,4.22
13,F1Q,4.13
14,F1T,3.67
15,F1D,3.9
16,F1R,3.46
17,F1Y,2.51
18,F1V,3.01
19,F1M,3.9
20,F1P,3.95
21,F1K,3.54
22,F1C,2.36
23,F1E,3.92
24,F1W,3.29
25,F1I,3.77

row,Variant,protein stability index
1,F1N,3.9
2,F1A,3.8
3,F1S,3.34
4,F1L,2.67
5,F1G,4.33
6,A2D,3.41
7,A2F,2.17
8,A2Q,2.73
9,A2H,1.82
10,A2W,2.18
11,A2R,2.82
12,A2G,3.17
13,A2P,2.67
14,A2L,2.57
15,A2I,1.89
16,A2Y,2.55
17,A2V,3.61
18,A2N,3.34
19,A2T,2.43
20,A2K,3.08
21,A2C,2.62
22,A2S,3.19
23,A2E,3.69
24,A2M,2.83
25,H10P,2.82

row,Variant,protein stability index
1,H10C,2.76
2,H10T,2.2
3,H10F,1.69
4,H10K,1.73
5,H10Y,2.51
6,H10Q,2.37
7,H10V,1.79
8,H10M,1.91
9,H10L,1.94
10,H10N,2.38
11,H10A,2.38
12,H10D,3.13
13,H10R,1.8
14,H10W,1.8
15,H10E,2.77
16,H10I,1.81
17,H10G,2.44
18,H10S,1.95

# Variants of: B2
# Assay: as above
# Settings: c terminus: a fixed tail appended
row,Variant,protein stability index
1,H9R,2.42
2,P2Q,2.51
3,P2S,2.43
4,P2W,1.45
5,P2N,2.47
6,P2M,2.48
7,P2V,2.62
8,S5N,1.99
9,S5K,2.49
10,S5L,2.15
11,S5H,2.1
12,S5W,2.18
13,S5P,2.15
14,S5D,2.74
15,G12K,1.98
16,G12E,1.95
17,G12R,2.26
18,G12W,2.08
19,G12S,1.84
20,G12T,2.04
21,G12H,1.94
22,G12I,1.49
23,G12M,1.7
24,M14F,2.28

row,Variant,protein stability index
1,M14R,2.8
2,M14A,2.13
3,M14E,1.88
4,M14L,1.74
5,M14T,1.99
6,M14P,2.07
7,V18H,1.95
8,V18Q,2.2
9,V18C,2.2
10,V18R,1.62
11,V18W,1.76
12,V18F,1.73
13,K6I,1.86
14,K6A,1.92
15,K6P,2.17
16,S13H,1.9
17,S13P,1.88
18,S13D,2.17
19,S13E,2.24
20,S13F,1.97
21,S13K,1.95
22,S13V,1.67
23,S13Y,1.78
24,P17M,1.42

row,Variant,protein stability index
1,P17L,1.62
2,P17K,1.59
3,P17T,1.59
4,P17G,1.83
5,P17C,1.41
6,P17W,2.59
7,K10Q,1.9
8,K10A,1.85
9,K10D,2.54
10,K10G,1.52
11,K10E,2.58
12,V23S,1.97
13,V23F,1.59
14,V23Y,1.75
15,V23M,1.93
16,V23K,2.1
17,Q4Y,2.56
18,Q4I,1.85
19,Q4P,2.16
20,Q4S,1.99
21,Q4V,2.43
22,Q4K,1.77
23,Q4M,1.39
24,Q4E,3.03

row,Variant,protein stability index
1,F8D,4.19
2,F8E,3.69
3,F8L,2.9
4,F8S,3.57
5,F8A,3.6
6,F8Y,1.97
7,F8V,2.86
8,F8T,3.18
9,Y1D,3.82
10,Y1I,2.77
11,Y1L,2.66
12,Y1C,2.95
13,Y1E,3.8
14,Y1F,2.03
15,Y1Q,3.43
16,S21N,2.4
17,S21T,2.52
18,S21P,1.96
19,S21A,1.8
20,S21Q,1.88
21,S21C,1.79
22,S21Y,2.6
23,L15N,2.02
24,L15M,1.8

row,Variant,protein stability index
1,L15W,1.47
2,L15D,2.29
3,L15H,2.27
4,I22K,1.65
5,I22P,2.01
6,I22A,2.22
7,I22C,1.76
8,I22Y,1.75
9,P16H,1.44
10,P16Y,1.78
11,P16L,1.76
12,P16C,1.97
13,P16A,1.95
14,P16W,1.96
15,P16V,2.16
16,P16K,2.01
17,G7V,1.86
18,G7N,2.09
19,G7C,1.94
20,G7Q,1.73
21,G7R,2.92
22,G7K,2.39
23,F20T,2.24
24,F20L,1.97

row,Variant,protein stability index
1,F20N,2.22
2,P24K,2.08
3,P24G,2.37
4,P24D,2.43
5,P24A,1.66
6,E3Y,2.03
7,E3R,1.64
8,E3M,2.14
9,E3H,1.81
10,E3I,2.12
11,E3Q,2.5
12,E3S,2
13,N19T,1.75
14,N19H,1.91
15,N19W,2.18
16,N19E,1.91
17,A11Q,2.17
18,A11W,1.82
19,A11I,2.7
20,A11D,2.29
21,A11S,1.78
